Source: the supplement of paper PMC10567573

B1: TNXB (parent)
chain: FSEIRETSAKVNWMPPPSRADSFK
B2: PBXIP1 (parent)
chain: LQQLRARLQGLEADCVRGPDGVCL

Variants of: B1
Assay: protein stability index of a GFP-peptide fusion (GPS, HEK-293T) (PSI 1-6); higher = more stable
Conditions: c terminus: a fixed tail appended
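Further: lentivirally expressed fusions sorted by FACS into six bins by GFP to DsRed ratio, PSI derived from sequencing read proportions per bin multiplied by bin number.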

Protein stability index: each site, then its substitutions
S22: I 3.38 | V 2.94 | K 3.58 | L 3.22 | Y 3.32 | C 3.29 | T 3.26 | M 2.79 | G 2.97 | A 3.32 | F 2.39 | N 3.38
P17: K 3.43 | L 2.86 | C 2.81 | S 3.44 | D 3.84 | M 2.97 | I 3.36 | W 2.79 | F 3.19 | A 3.65 | E 4.09 | R 3.3
A9: P 3.33 | S 3.75 | M 3.32 | Q 3.72 | N 2.95 | F 2.2 | K 3 | T 3.46 | V 2.35
W13: V 4.17 | Y 4.06 | S 3.83 | K 4.55 | F 3.57 | D 4.8 | A 4.11 | M 3.98
A20: F 2.73 | S 3.5 | N 3.27 | R 3.61 | T 2.8 | D 3.88 | W 2.92 | K 3.8 | E 3.6 | I 3.05 | V 2.46 | C 3.71 | L 2.9
P16: R 2.87 | L 3.02 | E 3.52 | S 3.69 | F 2.67 | D 3.03 | G 2.8 | W 1.82 | A 3.05 | Q 3.23 | H 3.05
E3: R 3.13 | Y 2.21 | C 1.77 | A 2.4 | V 2.44 | K 3.68 | I 2.03 | M 2.55 | Q 3.13 | G 2.34 | H 2.62 | D 3.37 | N 3.2 | P 2.52
S18: C 3.37 | A 3.68 | Y 3.5 | E 3.67 | F 2.71 | P 3.42 | Q 3.64 | N 3.18 | M 2.89 | I 2.46 | R 3.43 | T 3.16 | H 3.3 | G 3.51 | D 3.52
S8: W 2.1 | Y 2.95 | G 3.15 | K 2.95 | A 3.5 | V 3.1 | R 2.74 | H 3.4 | I 2.73 | C 3.95
M14: L 3.31 | A 3.17 | H 3.44 | D 3.91 | G 3.63 | S 3.92 | F 3.13 | Y 2.64 | R 4.26 | N 3.4
P15: Y 2.22 | W 2.56 | Q 3.36 | D 3.85 | I 2.18 | A 3.51 | S 3.15 | R 3.21 | N 3.12 | H 3.42 | F 2.46
F23: W 3.32 | Y 3.09 | R 4.44 | K 4.12 | N 4.1 | A 4.04 | V 4.07 | H 4.12 | Q 3.58 | E 4.33
R19: H 3.15 | I 3.12 | A 3.52 | Y 3.19 | G 3.43 | F 2.49 | K 3.6 | T 3.71 | L 2.65 | Q 3.6
F1: P 4.76 | Y 3.98 | W 3.6 | H 3.94 | E 4.45 | S 4.48 | Q 4.48 | K 4.4 | I 3.46 | L 4.02 | C 3.69 | A 4.29
N12: H 2.71 | K 2.88 | A 2.14 | T 2.9 | G 3.35 | R 2.62 | F 2.96 | M 2.04 | V 1.95
K24: Q 3.33 | H 2.73 | W 1.69 | Y 2.64 | E 3.21 | N 3.43 | A 2.92 | I 2.44 | G 3.35 | L 2.42 | F 2.47
E6: F 2.22 | R 2.89 | K 3 | C 2.65 | M 2.34 | W 2 | A 3.31 | Q 2.02 | L 2.28 | G 3.03
I4: L 3.42 | E 4.3 | N 3.51 | D 3.99 | A 3.76 | R 3 | Q 3.89 | F 2.9 | W 1.9 | K 3.72 | M 3.92 | T 4.29
D21: Y 3.01 | K 3.76 | Q 3.5 | I 3.05 | F 2.02 | E 3.79 | H 3.13 | A 3.17 | V 3.28 | M 3.41 | T 2.6
S2: T 2.67 | K 3.49 | F 2.65 | G 2.97 | Y 3 | A 2.69 | R 3.2
T7: G 3.14 | S 3.22 | R 3.3 | I 2.9 | M 2.97 | H 3.1 | D 3.86 | N 3.37 | Q 3.38 | V 2.97
R5: Y 3.04 | C 2.83 | S 4.02 | H 3.79 | Q 4.15 | D 3.97 | T 3.87 | A 3.96 | M 3.48 | F 2.86 | I 3.4 | N 3.79 | W 2.02 | P 4.12 | G 3.22
K10: F 2.09 | G 3.28 | W 1.66 | Y 2.72 | P 3.52 | A 3.92 | R 3.67 | D 4.01 | Q 4.12 | L 3.29 | I 3.06 | E 3.76
V11: C 3.15 | H 3.5 | P 4.03 | A 3.77 | R 3.02 | I 3.77 | T 3.72 | Y 2.7 | M 3.17 | D 4.12 | F 2.97 | N 3.45 | S 3.87

Variants of: B2
Assay: as above
Conditions: c terminus: a fixed tail appended

Protein stability index: each site, then its substitutions
G21: R 2.56 | S 3.94 | T 1.99
E12: T 2.02 | Q 2.26
A13: H 1.68 | L 1.45 | N 2.56
V22: Q 2.83
Q3: E 2.58 | G 2.66
A6: Q 1.54 | T 3.11 | V 2.4
L1: A 3.3
V16: D 2.87 | S 1.84 | C 1.78
D14: Y 1.14 | Q 2.21 | I 2.73 | M 3.39
L8: P 3.56 | K 3.57
L11: T 3.01 | P 2.07 | E 3.75 | F 2.25
L24: S 2.89 | D 3.08
L4: F 2.97 | M 2.03 | S 3.01 | I 1.49
R5: C 1.24 | P 2.98 | K 2.2
R7: P 2.59 | Y 1.73 | E 4.03 | L 3.52
G10: D 2.35 | W 2.15 | M 2.02
D20: R 2.54 | E 1.89 | T 2.12 | H 1.6
Q2: C 3.55 | P 3.05 | G 2.38 | M 1.74 | N 3.27 | I 1.3 | E 2.63 | S 2.63
G18: F 1.47 | C 2.23
R17: G 2.55 | H 2.93 | I 1.82 | L 1.98
Q9: S 1.37 | D 2.86
C15: K 2.29 | G 1.96 | D 2.65
